Our source for the Kd values is article PMC2957522 (Journal of molecular biology, 2010).

For the test, the target named is rabbit skeletal muscle actin (monomeric, Mg-εATP-actin) (rabbit, UniProt P68135 1-377). Put plainly: actin nucleotide exchange kinetics.

For orientation: Kd means the concentration at which binding is half-saturated. A high value points to a looser complex.

B1: TgPRF β-hairpin deletion mutant (ΔBH) (natural protein)
chain: MSDWDPVVKEWLVDTGYCCAGGIANAEDGVVFAAAADDDDGWSKLYKDDNEASTIKAAVDDGSAPNGVWIGGQKYKVVRPEKGFEYNDCTFDITMCARSKGGAHLIKTPNGSIVIALYDEEKEQDKGNSRTSALAFAEYLHQSGY
B1 gave a Kd above 150 µM.

B2: Toxoplasma gondii profilin (TgPRF) (natural protein)
chain: MSDWDPVVKEWLVDTGYCCAGGIANAEDGVVFAAAADDDDGWSKLYKDDHEEDTIGEDGNACGKVSINEASTIKAAVDDGSAPNGVWIGGQKYKVVRPEKGFEYNDCTFDITMCARSKGGAHLIKTPNGSIVIALYDEEKEQDKGNSRTSALAFAEYLHQSGY
modifications: selenomethionine-substituted (level of selenium substitution essentially 100%)
In turn, B2 displayed a Kd of 13.9 ± 5 µM.
